According to patent US20160222130A1 (Astellas, published 2016):

Legend:
Human Tie2 (1-452)g1-Fc [1] = target: T1, Human Tie2 (1-452)g1-Fc (human, UniProt Q02763 23-452); experiment: ELISA; Tie2-Fc coated at 1 ug/mL, chemiluminescence
T1 construct: range 1-452
Method: (§1) The next day, the immobilized solution was removed, and the plate was washed with a TBS-T solution, and incubated for 60 minutes by the addition of 50 μL of a Blocker™ Casein in TBS (Thermo Fisher Scientific Inc., 37532) to perform blocking. The resultant was washed with a TBS-T solution, and TIE-1-Igγ1-LALA, diluted with 0.05% Tween 20 (Nacalai Tesque Inc., 28353-85)—containing Blocker™ Casein in TBS from 0.03 ng/mL to 100 ng/mL through eight steps, was added thereto in the amount of 20 μL per well. The resultant was incubated at room temperature for 90 minutes and then washed with a TBS-T solution three times, and 20 μL of a biotin-labeled anti-human kappa light chain antibody, which had been diluted to 0.1 μg/mL with 0.05% Tween 20-containing Blocker™ Casein in TBS, was added thereto. The resultant was incubated at room temperature for 60 minutes and then washed with a TBS-T solution three times, and 20 μL of alkaline phosphatase-labeled streptavidin, which had been diluted to 0.1 μg/mL with 0.05% Tween 20-containing Blocker™ Casein in TBS, was added thereto. The resultant was incubated at room temperature for 60 minutes and then washed with a TBS-T solution three times, and 50 μL of Chemiluminescent Ultra Sensitive AP Microwell and/or Membrane Substrate (450 nm), which had been 5-fold diluted with 1 mM MgCl₂-containing 20 mM TBS (pH 9.8) as a substrate, was added thereto. The resultant was incubated at room temperature under light-shielding for 40 minutes, and then luminescent intensity thereof was measured with an EnVision™ multi-label counter. The EC₅₀ value of TIE-1-Igγ1-LALA with respect to the human Tie2 (1-452)-Fc chimeric protein and 23 mutant proteins thereof were calculated. The relative value of luminescent intensity of 100 ng/mL TIE-1-Igγ1-LALA as maximum concentration point with respect to human Tie2 (1-452)-Fc chimeric protein and 23 mutant proteins thereof when the convergence value of the sigmoid curve of TIE-1-Igγ1-LALA binding to the human Tie2 (1-452)-Fc chimeric protein which was taken as 100% was calculated (Table 8 and Table 9). Further, the EC₅₀ value and the convergence value were calculated by Sigmoid-Emax model non-linear regression analysis.

Human Tie2 (1-452)g6-Fc = target: T2, Human Tie2 (1-452)g6-Fc (human, UniProt Q02763 23-452); experiment: as above
T2 construct: range 1-452
Method: as §1

[2] = target: T3, human Tie2 (1-452)-Fc chimeric protein (human, UniProt Q02763 23-452); experiment: as above
T3 construct: range 1-452; The stated range 1-452 begins at residue 1 of the precursor
Method: as §1

Human Tie2 (1-452)r2-Fc = target: T4, Human Tie2 (1-452)r2-Fc (human, UniProt Q02763 23-452); experiment: ELISA; Tie2-Fc coated at 1 ug/mL; signal at 100 ng/mL antibody vs convergence value on the parent
T4 construct: range 1-452
Method: as §1

Human Tie2 (1-452)r3-Fc = target: T5, Human Tie2 (1-452)r3-Fc (human, UniProt Q02763 23-452); experiment: as above
T5 construct: range 1-452
Method: as §1

Human Tie2 (1-452)r5-Fc = target: T6, Human Tie2 (1-452)r5-Fc (human, UniProt Q02763 23-452); experiment: as above
T6 construct: range 1-452
Method: as §1

Human Tie2 (1-452)r6-Fc = target: T7, Human Tie2 (1-452)r6-Fc (human, UniProt Q02763 23-452); experiment: as above
T7 construct: range 1-452
Method: as §1

Human Tie2 (1-452)r7-Fc = target: T8, Human Tie2 (1-452)r7-Fc (human, UniProt Q02763 23-452); experiment: as above
T8 construct: range 1-452
Method: as §1

Human Tie2 (1-452)g1-Fc [3] = target: T1, Human Tie2 (1-452)g1-Fc; experiment: as above
Method: as §1

Human Tie2 (1-452)g2-Fc = target: T9, Human Tie2 (1-452)g2-Fc (human, UniProt Q02763 23-452); experiment: as above
T9 construct: range 1-452
Method: as §1

Human Tie2 (1-452)g3-Fc = target: T10, Human Tie2 (1-452)g3-Fc (human, UniProt Q02763 23-452); experiment: as above
T10 construct: range 1-452
Method: as §1

Human Tie2 (1-452)g4-Fc = target: T11, Human Tie2 (1-452)g4-Fc (human, UniProt Q02763 23-452); experiment: as above
T11 construct: range 1-452
Method: as §1

Human Tie2 (1-452)g5-Fc = target: T12, Human Tie2 (1-452)g5-Fc (human, UniProt Q02763 23-452); experiment: as above
T12 construct: range 1-452
Method: as §1

Human Tie2 (1-452)m3-Fc = target: T13, Human Tie2 (1-452)m3-Fc (human, UniProt Q02763 23-452); experiment: as above
T13 construct: range 1-452
Method: as §1

Human Tie2 (1-452)y1-Fc = target: T14, Human Tie2 (1-452)y1-Fc (human, UniProt Q02763 23-452); experiment: as above
T14 construct: range 1-452
Method: as §1

[4] = target: T3, human Tie2 (1-452)-Fc chimeric protein; experiment: as above
Method: as §1

Human Tie2 (1-452)r1-Fc = target: T15, Human Tie2 (1-452)r1-Fc (human, UniProt Q02763 23-452); experiment: as above
T15 construct: range 1-452
Method: as §1

T3 sequence (Q02763 other isoform, or with tags, fused parts or gaps mutant limits assumed, form in doubt): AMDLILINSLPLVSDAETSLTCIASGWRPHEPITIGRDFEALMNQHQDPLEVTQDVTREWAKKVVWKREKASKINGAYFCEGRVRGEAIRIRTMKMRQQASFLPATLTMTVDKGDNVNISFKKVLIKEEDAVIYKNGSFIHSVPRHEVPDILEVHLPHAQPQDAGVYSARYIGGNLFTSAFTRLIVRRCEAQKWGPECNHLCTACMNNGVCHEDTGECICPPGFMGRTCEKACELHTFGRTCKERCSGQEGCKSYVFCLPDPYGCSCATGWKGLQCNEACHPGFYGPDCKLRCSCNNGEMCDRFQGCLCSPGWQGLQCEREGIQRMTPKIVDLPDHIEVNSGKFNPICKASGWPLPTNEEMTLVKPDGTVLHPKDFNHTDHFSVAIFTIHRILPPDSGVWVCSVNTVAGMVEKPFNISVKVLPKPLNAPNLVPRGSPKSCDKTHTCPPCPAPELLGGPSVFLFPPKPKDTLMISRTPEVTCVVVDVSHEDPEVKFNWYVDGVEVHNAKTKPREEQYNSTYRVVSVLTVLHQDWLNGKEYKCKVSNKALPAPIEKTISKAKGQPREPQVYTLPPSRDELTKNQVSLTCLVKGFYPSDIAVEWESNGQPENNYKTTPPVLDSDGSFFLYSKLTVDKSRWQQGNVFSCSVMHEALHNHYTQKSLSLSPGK
T1 sequence (Q02763 other isoform, or with tags, fused parts or gaps limits assumed, form in doubt): as the sequence (Q02763 other isoform, or with tags, fused parts or gaps mutant limits assumed, form in doubt) above, with I172A, N175A, L176A counted along it
T11 sequence (Q02763 other isoform, or with tags, fused parts or gaps limits assumed, form in doubt): as the sequence (Q02763 other isoform, or with tags, fused parts or gaps mutant limits assumed, form in doubt) above, with G173E counted along it
T15 sequence (Q02763 other isoform, or with tags, fused parts or gaps limits assumed, form in doubt): as the sequence (Q02763 other isoform, or with tags, fused parts or gaps mutant limits assumed, form in doubt) above, with R145A, H146A, E147A counted along it
T6 sequence (Q02763 other isoform, or with tags, fused parts or gaps limits assumed, form in doubt): as the sequence (Q02763 other isoform, or with tags, fused parts or gaps mutant limits assumed, form in doubt) above, with E147A counted along it
T4 sequence (Q02763 other isoform, or with tags, fused parts or gaps limits assumed, form in doubt): as the sequence (Q02763 other isoform, or with tags, fused parts or gaps mutant limits assumed, form in doubt) above, with D150A, I151A counted along it
T2 sequence (Q02763 other isoform, or with tags, fused parts or gaps limits assumed, form in doubt): as the sequence (Q02763 other isoform, or with tags, fused parts or gaps mutant limits assumed, form in doubt) above, with L176A counted along it
T8 sequence (Q02763 other isoform, or with tags, fused parts or gaps limits assumed, form in doubt): as the sequence (Q02763 other isoform, or with tags, fused parts or gaps mutant limits assumed, form in doubt) above, with I151A counted along it
T5 sequence (Q02763 other isoform, or with tags, fused parts or gaps limits assumed, form in doubt): as the sequence (Q02763 other isoform, or with tags, fused parts or gaps mutant limits assumed, form in doubt) above, with R145A counted along it
T14 sequence (Q02763 other isoform, or with tags, fused parts or gaps limits assumed, form in doubt): as the sequence (Q02763 other isoform, or with tags, fused parts or gaps mutant limits assumed, form in doubt) above, with D15A counted along it
T10 sequence (Q02763 other isoform, or with tags, fused parts or gaps limits assumed, form in doubt): as the sequence (Q02763 other isoform, or with tags, fused parts or gaps mutant limits assumed, form in doubt) above, with I172A counted along it
T13 sequence (Q02763 other isoform, or with tags, fused parts or gaps limits assumed, form in doubt): as the sequence (Q02763 other isoform, or with tags, fused parts or gaps mutant limits assumed, form in doubt) above, with S72A, K73A counted along it
T9 sequence (Q02763 other isoform, or with tags, fused parts or gaps limits assumed, form in doubt): as the sequence (Q02763 other isoform, or with tags, fused parts or gaps mutant limits assumed, form in doubt) above, with R170A counted along it
T7 sequence (Q02763 other isoform, or with tags, fused parts or gaps limits assumed, form in doubt): as the sequence (Q02763 other isoform, or with tags, fused parts or gaps mutant limits assumed, form in doubt) above, with D150A counted along it
T12 sequence (Q02763 other isoform, or with tags, fused parts or gaps limits assumed, form in doubt): as the sequence (Q02763 other isoform, or with tags, fused parts or gaps mutant limits assumed, form in doubt) above, with N175A counted along it

B1: TIE-1-Igγ1-LALA (antibody, human IgG1, kappa, L234A L235A)
heavy: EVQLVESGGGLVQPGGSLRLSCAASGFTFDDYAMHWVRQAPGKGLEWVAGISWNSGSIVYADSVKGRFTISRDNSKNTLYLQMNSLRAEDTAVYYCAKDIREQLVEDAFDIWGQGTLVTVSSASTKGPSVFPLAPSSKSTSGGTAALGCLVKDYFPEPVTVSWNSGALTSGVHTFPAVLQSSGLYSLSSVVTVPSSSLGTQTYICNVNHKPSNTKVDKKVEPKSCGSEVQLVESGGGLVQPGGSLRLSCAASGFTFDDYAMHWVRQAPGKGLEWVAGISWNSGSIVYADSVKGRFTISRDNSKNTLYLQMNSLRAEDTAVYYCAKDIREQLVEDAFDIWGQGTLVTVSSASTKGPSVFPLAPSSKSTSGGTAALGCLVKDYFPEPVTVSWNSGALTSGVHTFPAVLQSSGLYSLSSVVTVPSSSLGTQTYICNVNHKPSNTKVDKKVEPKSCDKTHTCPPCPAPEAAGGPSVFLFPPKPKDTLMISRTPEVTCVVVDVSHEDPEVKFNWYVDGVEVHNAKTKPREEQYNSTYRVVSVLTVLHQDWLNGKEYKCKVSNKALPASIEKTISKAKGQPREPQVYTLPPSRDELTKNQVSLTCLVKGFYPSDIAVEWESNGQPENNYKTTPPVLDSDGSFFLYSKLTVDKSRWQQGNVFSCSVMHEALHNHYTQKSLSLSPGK
light: DIQMTQSPSSLSASVGDRVTITCRSSQSLLHSHRYNYLDWYQQKPGKAPKLLIYLGSNRASGVPSRFSGSGSGTDFTLTISSVQPEDFATYYCMQTLQTPLTFGQGTKVEIKRTVAAPSVFIFPPSDEQLKSGTASVVCLLNNFYPREAKVQWKVDNALQSGNSQESVTEQDSKDSTYSLSSTLTLSKADYEKHKVYACEVTHQGLSSPVTKSFNRGEC
notes: Tandem tetravalent format: two heavy chains (VH-CH1-linker-VH-CH1-CH2-CH3) and four light chains; also called tetravalent anti-human Tie2 antibody with L234A, L235A and P331S
Human Tie2 (1-452)g1-Fc [1]
  EC50: 12.3 ng/mL
Human Tie2 (1-452)g6-Fc
  EC50: 1.3 ng/mL
[2]
  EC50: 1.1 ng/mL
Human Tie2 (1-452)r2-Fc
  Relative value (%) of luminescent intensity: 96%
Human Tie2 (1-452)r3-Fc
  Relative value (%) of luminescent intensity: 102%
Human Tie2 (1-452)r5-Fc
  Relative value (%) of luminescent intensity: 102%
Human Tie2 (1-452)r6-Fc
  Relative value (%) of luminescent intensity: 100%
Human Tie2 (1-452)r7-Fc
  Relative value (%) of luminescent intensity: 100%
Human Tie2 (1-452)g1-Fc [3]
  Relative value (%) of luminescent intensity: 3%
Human Tie2 (1-452)g2-Fc
  Relative value (%) of luminescent intensity: 72%
Human Tie2 (1-452)g3-Fc
  Relative value (%) of luminescent intensity: 96%
Human Tie2 (1-452)g4-Fc
  Relative value (%) of luminescent intensity: 53%
Human Tie2 (1-452)g5-Fc
  Relative value (%) of luminescent intensity: 91%
Human Tie2 (1-452)m3-Fc
  Relative value (%) of luminescent intensity: 103%
Human Tie2 (1-452)y1-Fc
  Relative value (%) of luminescent intensity: 109%
[4]
  Relative value (%) of luminescent intensity: 97%
Human Tie2 (1-452)r1-Fc
  Relative value (%) of luminescent intensity: 97%
